These results are taken from the nanobody polyreactivity screen of Harvey et al. (2022).

The data set can be described thus: yeast display, Sf9 membrane polyspecificity reagent, FACS + sequencing; frameworks hold sequencing errors. Put shortly: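 Genes from sorted yeast were amplified by colony PCR, read by MiSeq 2 × 250 sequencing and filtered on CDR length. These cells carried a synthetic nanobody library in Saccharomyces cerevisiae BJ5465 and were sorted by FACS into low and high (top ~1%) gates on anti-HA and streptavidin fluorescence. Polyreactivity is labelled according to the gate of origin.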
With “QVQLVESGGGLVQAGGSLRLSCAASGSIFGVYVMGWYRQAPGKERELVAAITRGASTNYADSVKGRFTISRDNAKNTVYLQMNSLKPEDTAVYYCAADGWYSAVGVWLEYDYWGQGTQVTVSS”, the “polyreactivity (PSR sort gate)” value is listed as “low polyreactivity”.

On to “QVQLVESGGGLVQAGGSLRLSCAASGSTIFFNAMGWYRQAPGKERELVAGISSSGGSTHYADSVKGRFTISRDNAKNTVYLQMNSLKPEDTAVYYCNAQQYLPSEGDYWGQGTQVTVSS”, for which the “polyreactivity (PSR sort gate)” value is listed as “low polyreactivity”. With “QVQLVESGGGLVQAGVSLRLSCAASGSTFYWYAMGWYRQAPGKERELVAAITYSSGRTYYADSEKGRFTISRDNAKNTVYLQMNSLKPEDTAVYYCGWSALNGYDYWGQGTQVTVSS” the entry was “high polyreactivity”. With “QVQLVESGGGLVQAGGSLRLSCAASGFTFFNYAMAWYRQAPGKERELVAAISSNGGRTYYADSVKGRFTISRDNAKNTVYLQMNSLKPEDTAVYYCATLYYGRVDYDYWGQGTQVTVSS” the entry was “high polyreactivity”. With “QVQLVESGGGLVQAGGSLRLSCAASGSIFYRNAMGWYRQAPGKERELVAAISASGGSTYYADSVKGRFTISRDNAKNTVYLQMNSLNPEDTAFYYCAVEYRKSRSYYPYYYWGQGTQVTVSS” the entry was “high polyreactivity”. As to “QVQLEESGGGLVQAGGSLRLSCAASGRIFMTYAMGWYRQAPGKERELVAAITRRGGTTYYADSEKARFTISRDNAKNTVYLQMNCLKPEDTAVYYCAPAKPRVISQNIIYDYWGQGTQVTVSS”, the “polyreactivity (PSR sort gate)” value is recorded as “high polyreactivity”. With “QVQLVESGGGLVQAGGSLRLSCAASGSIFSSNTMGWYRPAPGKERELVAAITSGGGTYYADSVKGRFTISRDNAKNTVSLQMNSLKPEDTAVYYCAAQRVYKSSPSYDYWGQGTLVTVSS” the entry was “low polyreactivity”; with “QVQLVESGGGLVQAGGSLRLSCAASGSILQRYAMGWYRQAPGKERELVAAISTSGSSTYYADSVKGRFTISRDNAKNTVYLQMNSLKPEDTAVYYCAAKSRKFDYWGQGTQVTVSS”, “high polyreactivity”. The result for “QVQLVESGGGLVQAGGSLRLSCAASGSTFVWYAMGWYRQAPGKERELVAVIDWSGGSTSYADSVKGRFTISRDNAKNTVYLQMNSLKPEDTAVYYCAADSGHYYGLYYWGQGTQVTVSS” reads “low polyreactivity”; that for “QVQVVDSGGGLVQAGGSLSLSCAASGSIFIYYAMGWYRQAPGKERELVAVINDDGSTNYADSVKGRFTISRDNAMNTVYLQMNSLKPEDTAVYYCNTTIGTYYSPSDYWGQGTQVTVSS”, “low polyreactivity”; that for “QVQLVESGGGLVQAGGSLRFSCADSGSIFVRYAMGWYRQAPGKERELVAAISVRGGRTYYADSVKGRFTISRDNAKNTVYLQMNSLKPEDTAVYYCAAQLYYYYTYVPPGGYWGQGTQVTVSS”, “high polyreactivity”. As for “QVQLVESGGGFVQAGGSLRLSCAASGSTFHGYAMGWYRQEPGKERELVAAITSSGGSTYYADSVKGRFTISRDNAKNTVYLLMNILNPEVTEVYYCAARRYGWGRAQSSASYDHWGQGTQVTVSS”, the “polyreactivity (PSR sort gate)” value is given as “high polyreactivity”. With “QVQLVESGGGLVQAGGSLRLSCAASGRILPVYAMGWYRQAPGKERELVAAINDSGTNTNYADSVKGRFTISRDNAKNTVYLHMNSLKPEDTAVYYCAASSGPRQGYSYRPHKSYGSWGQGTQVTVSS” the entry was “low polyreactivity”; with “QVQLVESGGGLVQAGGSLRLSCAASGGIFRYSAMGWYRQAPGKERELVATDGDTYYADSVKGRFTISRDNAKNTVYLQLNSLKPEDTAVYYCAAEPVRYYAMEYWGQGTQVTVSS”, “low polyreactivity”.

“QVQLVESGGGLVQAGGSLRLSCAASGSIFYHYAMGWSRQAPGKERELVAAITRSGGSTYYADSVKGRFTISRDNAKHTVYLQMNSLKPEDTAVYYCAKDPDSYNFLTSNWYDYWGQGTQVTVSS”: the “polyreactivity (PSR sort gate)” value is “low polyreactivity”.

For the sequence “QVQLVESGGALVQAGGSLRLSCAASARIFGRNAMGWYTQAPGKERELVAAISSGGSTYYADSVKGRFTISRDNAKKTVYLQMNSLKPEDTAVYYCAVRGYYFNGGRAFESWGQGTQVTVSS”, the “polyreactivity (PSR sort gate)” value is “high polyreactivity”. The result for “QVQLVDSGGGLVQAGGSLSLSCGASGIIFVSNAMGWYRQAPGKERELVATINWSDDSTYYADSVKGRFTISRDNAKNTVYLQMNSLKPEDTAVYYCYWRQGTQVTVSS” reads “low polyreactivity”; that for “QVHLVESGGGLVQAGGSLRLICAASGSIFRWNAMGWYRQAPGKEREFVATISSGRNTKYADSVKGRFTISRDNAKNTVYLQMTSLKPQDTAVNDCAAAVKRALDYWGQGTQVTVSS”, “high polyreactivity”. With “QVQLVESGGGLVQAGGSLRLSCAASGFTFKYYTMGWYRQAPGKERELVAAISKSGDITYYADSVKGRFTISRDNAKNTVYLQMNSLKPEDTAVYYCAAVGRVSYNRFDYWGQGTQVTVSS” the entry was “high polyreactivity”; with “QVQLLESGGGLDQARGSLRLSCAASGITFEYNAMGWYRQAPGKERELVAAISLSSGSTYYADSVKGRFTISRDNAKNTVYLQMNSLKPEDTAVYYGNADTIIYEGGYWGQGTQVTVSS”, “low polyreactivity”; with “QVQLVESGVGLVQAGGSLRLSCAASGSIFLRNDMAWYRQAPGKERELVAGISSVGSTYYADSVKGRFTISRDNAKNTVYLQMNSLKPEDTAVYYCAAERWGNPTDYQFWRPYDYWGQGTQVTVSS”, “low polyreactivity”. On to “QVQLVESGGGLVQAGGSLRLSCAASGSIFSSYAMGWYRQAPGKERELVAAISQSGGDTYYADSVKGRFTISRDNAKNTVYLQMNSLKPEDTAVYYCAASFWYYPMDYWGQGTQVTVSS”, for which the “polyreactivity (PSR sort gate)” value is “low polyreactivity”.

Consider “QVQLVESGGGLVQAGGSLRLSCAASGIISYVYAMGWYRQAPGKERELVAAINWSGGNTYYADSVKGRFTISRDNAKNTVYLQMNSLKPEDTAVYYCAARAVLKSWAYYYWGQGTQVTVSS”, for which the “polyreactivity (PSR sort gate)” value is “high polyreactivity”. With “QVHHLESRGGLVQEGGSLPISCGASGSTFLRYALGWYRQAPGKVRELVADITTSGGITYYADSVKGRFTISRDNAKYTVYLQLNSLKPEDTAVYDCDYWGQGTQVTVSS” the entry was “low polyreactivity”; with “QVQLVESGGGLVQAGGSLRLSCAASGFTFGYYAMGWYRQAPGKERELVDAISSSGGSTYYSDSVKGSFTISRDNAKNTVYLQMNSLKPEDTAVYYCNRGTTVRGPGYTNGRDITRYDYWGQGTQVTVSS”, “high polyreactivity”. The result for “QVQLVESGGGLVQAGGSLRLSCAASGSIFGDNAMGWYRQAPGKERELVAAITSSGGSTYYADSVKGRFTISRDNAKNTVYLQMNSLKPEDTAVYYCNADFGYGWYLRYDYWGQGTQVTVSS” reads “high polyreactivity”; that for “QVHLVESGGGLVQAGGSLRLSCAASGSTFTYYAMGWYRQAPGKERELVAAISRRGGSTYYADSVKGRFTISRDNAKNTVYLQMNSLKPEDTAVYYCNVVIYSYGCNGRYDFWGQGTQVTVSS”, “high polyreactivity”; that for “QVQLVETGGGLVQAGVSLRLSCAASGRIFEVNVMGWYRQAPGKERELVAAITTGGGSTYYADSVKGRFTISRDNAKNTVYLQMNSLKPEDTAVYYCATDYSSYLYDYYTGVGGYDYWGQGTQVTVSS”, “low polyreactivity”. With “QVQLVDSGGGLVQAGGSLRLSCAAAGSNLSQYAMGWYRQAPGKERELVAAITYGGGSTYYADSVKGRFTISRDNAKKTVHIQMISLKPEDPAVYYCALEFTYWGDPYDYWGQGTQVTVSS” the entry was “low polyreactivity”.

As to “QVQLVESGGGLVQAGGSLRLSCAASGSTFFVNAMGWYRQAPGKERELVAAISTSGGRTYYADSVKGRFTISRDNAKNTVYLQMNSLKPEDTAVYYCAAFLRSPKGYYYWGQGTQVTVSS”, the “polyreactivity (PSR sort gate)” value is “high polyreactivity”.
